Here are results for five molecules from patent CN117843801A (BEILAI PHARMACEUTICAL CO LTD, dated 2024).

First the molecules themselves.
B1: 单域抗体(2)(1-F2) (Fc fusion)
chain: QVQLVESGGGLVQPGGSMRLSCAASTIGLSIYSGAWYRQAAGKQRELVARITRRGVTNYADSVKGRFTISKDNAKNTVSLEMNSLKPEDTAVYYCNVGGEDGYWGQGTQVTVSS
B2: 单域抗体(1)(1-C11) (Fc fusion)
chain: DVQLVESGGGLVQPGGSLRLSCAASESLLRLYAMGWYRQLPGQEREWVAIHTTSDTTNYRDSVKGRFTLSRDVATNTIYLQMTSLKPEDTAVYYCHVTSMRDSQNYWGQGTQVTVSS
B3: 串联纳米抗体C11-1-F2 (Fc fusion)
chain: DVQLVESGGGLVQPGGSLRLSCAASESLLRLYAMGWYRQLPGQEREWVAIHTTSDTTNYRDSVKGRFTLSRDVATNTIYLQMTSLKPEDTAVYYCHVTSMRDSQNYWGQGTQVTVSSGGGGSGGGGSGGGGSQVQLVESGGGLVQPGGSMRLSCAASTIGLSIYSGAWYRQAAGKQRELVARITRRGVTNYADSVKGRFTISKDNAKNTVSLEMNSLKPEDTAVYYCNVGGEDGYWGQGTQVTVSS
B4: Ixekizumab (antibody, human IgG4 S228P, kappa, V domains shown)
VH: QVQLVQSGAEVKKPGSSVKVSCKASGYSFTDYHIHWVRQAPGQGLEWMGVINPMYGTTDYNQRFKGRVTITADESTSTAYMELSSLRSEDTAVYYCARYDYFTGTGVYWGQGTLVTVSS
VL: DIVMTQTPLSLSVTPGQPASISCRSSRSLVHSRGNTYLHWYLQKPGQSPQLLIYKVSNRFIGVPDRFSGSGSGTDFTLKISRVEAEDVGVYYCSQSTHLPFTFGQGTKLEIKR
notes: Made in house from the variable regions cloned into pcDNA3.4-hIgG4 and pcDNA3.4-hIgKc vectors; positive control; also called 阳性对照抗体Ixekizumab; 对照抗体Ixekizumab

T1 sequence (Q16552 other isoform, or with tags, fused parts or gaps limits assumed): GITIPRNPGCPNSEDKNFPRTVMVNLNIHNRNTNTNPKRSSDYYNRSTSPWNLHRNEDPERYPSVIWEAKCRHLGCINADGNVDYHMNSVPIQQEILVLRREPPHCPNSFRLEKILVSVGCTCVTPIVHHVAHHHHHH

One experiment has as its target T1, Human IL-17A重组蛋白 (IL-17A-His) (human, UniProt Q16552 24-155, biotin label in the ELISA of Example 2 (Biotin-IL-17A-His); site not stated). Briefly: cell-based or functional assay.
For the molecule B1, the “IC50, 阻断活性 (reporter cells)” value was 14.2 µg/mL.

With B2, the “IC50, 阻断活性 (reporter cells)” value amounted to 18.8 µg/mL.

For the molecule B3, the “IC50, 阻断活性 (reporter cells)” value was 1.16 µg/mL.

Take B4: the “IC50, 阻断活性 (reporter cells)” value was 1.36 µg/mL.

In another experiment the target is T1, Human IL-17A重组蛋白 (IL-17A-His). Briefly: ELISA, antibody coated at 2 ug/mL, Biotin-IL-17A-His titrated from 10 ug/mL (5-fold, 7 points), HRP-streptavidin. (In general: ELISA stands for enzyme-linked immunosorbent assay.)
Regarding B1, the EC50 (as a rule, the concentration at which the effect is half-maximal) was 4.04 µg/mL.

On to B2, for which a half-maximal response (EC50) required 30 µg/mL.

B3 returned an EC50 of 0.745 µg/mL.

Turning to B4, it took 10.1 µg/mL to reach a half-maximal effect (EC50). Compared with the last molecule, the EC50 is about 14-fold higher.

The target of a further experiment is IL-17RA and IL-17RC co-expressed on 293F-IL-17RA-IL-17Rc-ACT1-NFκB-Luc cells (UniProt Q96F46). Briefly: FACS, IL-17A on 293 cells overexpressing IL-17RA and IL-17RC. On the technique in general: In flow cytometry, cells or beads pass a laser one at a time.
“Human IL-17A重组蛋白 (IL-17A-His) (from UniProt Q16552 24-155) (ligand)” yielded a 阳性率 above 90%.
